± gives the uncertainty stated by the source.

The nature of this data set: amyloid nucleation score (Sup35N fusion, yeast selection) (log enrichment); library NNK3; higher = more nucleation; inactive = no reads after selection. The gist of the method:
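DiMSum was used to calculate nucleation scores as log enrichment of output over input reads, centred on the mode score of non-aggregating sequences. Sequences with fewer than 100 input reads were not scored. Input and output came from Illumina sequencing of plasmid inserts in psi-negative yeast expressing peptides of 20 random codons fused to Sup35N, induced 24 hours with 100 μM copper sulfate and then grown 7 days at 30°C on medium lacking adenine and uracil.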
With IWRGSKDYKSPVRHFSQAN, the amyloid nucleation score entry was “inactive”.

In the case of DFEVR, the amyloid nucleation score entry was “inactive”.

Turning to NRTQRISWIWVLTPSDVLVS, the amyloid nucleation score entry was “inactive”.

Turning to QSCCF, the amyloid nucleation score entry was “inactive”.

As for DVRFVRDAGAVFLIILSERH, the amyloid nucleation score result is “inactive”.

ACRGLVDVNNWLSGYGIRIG: the amyloid nucleation score entry is “inactive”.

Take SGIIWQYNARLE: the amyloid nucleation score result was “inactive”.

On to IISDQEFSYETCDFSYFCKG, for which the amyloid nucleation score result is “inactive”.

Regarding NFHQMW, the amyloid nucleation score entry is “inactive”.

In the case of YFPSYYVADFSSHLLMGQVY, the amyloid nucleation score entry is “inactive”.

For FGVFVWEVVVGNMLLPHMVN, the amyloid nucleation score entry was “inactive”.

As for FLVCHDYAYETVG, the amyloid nucleation score result was “inactive”.

Turning to RSTCCWIR, the amyloid nucleation score result is “inactive”.

As for LQKIKCSQADYWREMTVRDR, the amyloid nucleation score amounted to 1.01 ± 0.16.

FMKSMVLYPDTVLFYFCLLH: the amyloid nucleation score entry was “inactive”.

Regarding VRWYCS, the amyloid nucleation score result is “inactive”.

Regarding LASRSHKHINATLAHLNPLL, the amyloid nucleation score result was “inactive”.

With GWYLFC, the amyloid nucleation score result was “inactive”.

Turning to CVRYSRSGWVCDTGRLKDPC, the amyloid nucleation score entry was “inactive”.

With LNVYNWKN, the amyloid nucleation score entry is “inactive”.

As for TLNRLDSHGSFFRMNVREGV, the amyloid nucleation score result was “inactive”.

Regarding FLWMSGSSGWLSTVVIGGSW, the amyloid nucleation score result is “inactive”.

Regarding YSIDLFIRESDFDVHKKHIS, the amyloid nucleation score entry is “inactive”.

With IRSIEPYPMHTTSW, the amyloid nucleation score was -0.428 ± 1.1.

On to GPSPDPNRLP, for which the amyloid nucleation score is -0.754 ± 1.3.

Take YSGSNCLSSDEYWWRDDSLT: the amyloid nucleation score result is “inactive”.

As to AVIFFYRVISFLRWSFTLPV, the amyloid nucleation score entry was “inactive”.

As for YPRTSFRFKGCDKEVVSDLL, the amyloid nucleation score entry is “inactive”.

Consider SLAMTFYSGIGFYCFSCFFN, for which the amyloid nucleation score came out at 2.36 ± 0.059.

Take NICMAI: the amyloid nucleation score entry was “inactive”.

For the substance EERRDLAPTDLTWKDFRALQ, the amyloid nucleation score entry is “inactive”.

KQGVILTNRVYAFALGSSTH: the amyloid nucleation score entry was “inactive”.

As for NSCLRLSSHRMMFLAIAVTC, the amyloid nucleation score entry is “inactive”.

With FVCFIKLRLVDSRIVTNFQR, the amyloid nucleation score entry was “inactive”.

Regarding FLETV, the amyloid nucleation score entry is “inactive”.

Consider CKRNKDGKWRRKTWRLVQFY, for which the amyloid nucleation score was -1 ± 1.2.

In the case of WHTAKGTWSTGRQEDTGQSR, the amyloid nucleation score entry is “inactive”.

Substance TSYDFTMARYCSNDYVFIWH displayed an amyloid nucleation score of 2.44 ± 0.061.

Turning to LTTQSGLMAGRKKFWDAELG, the amyloid nucleation score worked out at 0.902 ± 0.21.

As to RRYVDRYEAIWWCFCIRKLF, the amyloid nucleation score entry is “inactive”.

With FILRVFMA, the amyloid nucleation score result was “inactive”.

The substance SFNITAWMMFMNVIQGYSI had an amyloid nucleation score of 2.38 ± 0.059.

As to SANGMSNRRYSDHHLYVVSA, the amyloid nucleation score entry was “inactive”.

As to SHYRIMT, the amyloid nucleation score entry was “inactive”.

IVKKHVDFQQTVN: the amyloid nucleation score entry is “inactive”.

Turning to WDIMSRYLCMYIGYTARRCM, the amyloid nucleation score result is “inactive”.

In the case of VRQKALRNPQL, the amyloid nucleation score result was “inactive”.

As to CCEFC, the amyloid nucleation score entry was “inactive”.

Regarding EGNMLASRSSGEPS, the amyloid nucleation score result was “inactive”.

In the case of NNLVPYLVWYCVTRNKTNGN, the amyloid nucleation score result was “inactive”.

For VVGSDGMFTCSCLREVR, the amyloid nucleation score entry is “inactive”.

Substance VFTFRWHVWRDWLMSEHCDK displayed an amyloid nucleation score of -0.296 ± 0.55.

CCYATSLYINDDATIIVNLM came in with an amyloid nucleation score of 2.74 ± 0.072.

As to ACTLLCFRIAQLEFLWVRVD, the amyloid nucleation score result was “inactive”.

Consider RVVLTVFMFLIQSENACKLH, for which the amyloid nucleation score result was “inactive”.

On to GDLSS, for which the amyloid nucleation score entry was “inactive”.

For MSPPCFNRMSYIMLPWFVML, the amyloid nucleation score result is “inactive”.

On to DKRFELNRALLTVPWDQNRA, for which the amyloid nucleation score entry is “inactive”.

On to CSMPFTSSEKLGKCGNDAPF, for which the amyloid nucleation score result was “inactive”.

For MILYPSYLPYLRMVDTTY, the amyloid nucleation score result is “inactive”.

For the substance YKGYSVCIVLPFG, the amyloid nucleation score is -0.542 ± 0.98.

On to TRHSHLCS, for which the amyloid nucleation score result was “inactive”.

For THKVWFKCVDAYNLAYVNSI, the amyloid nucleation score result is “inactive”.

For the substance SGKSLDDRFSK, the amyloid nucleation score entry is “inactive”.

VSSWNSSMMIYMVLCIRMSG: the amyloid nucleation score result is “inactive”.

Take FLHQGT: the amyloid nucleation score result is “inactive”.

FPENIVYGHEGLD: the amyloid nucleation score entry was “inactive”.

DANWDTLIFLSSRMNAWRYK had an amyloid nucleation score of 1.86 ± 0.077.

Take RFRNYGLSGR: the amyloid nucleation score was -0.38 ± 0.89.

Consider FRADSSVGVIKVCLGRLCRW, for which the amyloid nucleation score entry is “inactive”.

As for FSSRDWNYSSRMVKIRNGRF, the amyloid nucleation score entry is “inactive”.

With LHHAVVREWRFQKNVCRQLR, the amyloid nucleation score entry is “inactive”.

Regarding TDAIVFMEHSDVGRSSLDWN, the amyloid nucleation score entry is “inactive”.

On to RRNDRYVCFAMMSRRSGVYL, for which the amyloid nucleation score entry was “inactive”.

For the substance DYGSFMYSLTSCMVNYWYMA, the amyloid nucleation score result was “inactive”.

With TVRKHLLLDHKWYVVNSEIT, the amyloid nucleation score entry was “inactive”.

Consider CLFRDDRNRVDI, for which the amyloid nucleation score entry is “inactive”.

Regarding NSTDRGLEFRTDHYHT, the amyloid nucleation score result was “inactive”.

SMGLR: the amyloid nucleation score result is “inactive”.

As for FGINDCVIRV, the amyloid nucleation score result was “inactive”.

As for SDLYTIGVVPTLTFINAPCI, the amyloid nucleation score entry is “inactive”.

TTASFFLNKISLKNHRASCT: the amyloid nucleation score result was “inactive”.

EVYEMNSIRMRSSELSME: the amyloid nucleation score entry was “inactive”.

For GHVSTCPNDGAAALSCLELF, the amyloid nucleation score result was “inactive”.

Take SLVGGICVRHREDVDTQKFK: the amyloid nucleation score result is “inactive”.

In the case of FIEVYCKMGCLRYLVWGWSD, the amyloid nucleation score result was “inactive”.

As for VFNWYEVVFTFWCNMTANGM, the amyloid nucleation score came to 1.49 ± 0.069.

On to CTYIVHATVEPVYDNDLLKW, for which the amyloid nucleation score result was “inactive”.

Take LRYVGCTKMSGAMGARS: the amyloid nucleation score entry was “inactive”.

For NVAGM, the amyloid nucleation score entry is “inactive”.

The substance GTYCFINLTTRTGDRKGRHA returned an amyloid nucleation score of 1.05 ± 0.12.

Consider SYKGLCS, for which the amyloid nucleation score entry is “inactive”.

In the case of AANLDYSRLLEVLE, the amyloid nucleation score result is “inactive”.

For the substance VNGTLGFIGRETLYGTTRLT, the amyloid nucleation score entry is “inactive”.

Consider GEILSGITTLGVYYSYVWHL, for which the amyloid nucleation score result is “inactive”.

For the substance WMYRKTSNRICCLPRESVNP, the amyloid nucleation score entry is “inactive”.

As to VLLDMFRNFVWNSRVVFNGS, the amyloid nucleation score entry is “inactive”.

Source of the values: the supplement of paper PMC12042874.
